For 5 molecules, OD value of the antigen well (Pro) results are on record in EP4714972A1.

Experiment [1] deals with CD38 antigen (human-derived CD38 antigen protein) (human) (UniProt P28907). As to the kind of experiment: phage ELISA on coated CD38 antigen; control well (PVA) OD 0.13.
The target is the same in experiment [2]. As to the kind of experiment: phage ELISA on coated CD38 antigen; control well (PVA) OD 0.05. On the technique in general: ELISA stands for enzyme-linked immunosorbent assay.
For experiment [3] the target is unchanged. Kind of experiment: phage ELISA on coated CD38 antigen; control well (PVA) OD 0.18.
For experiment [4] the target is unchanged. As to the kind of experiment: phage ELISA on coated CD38 antigen; control well (PVA) OD 0.04.

B1: B5 alpaca antibody (anti-CD38 single-domain antibody) (VHH)
VHH: QVQLVESGGGLVQPGGSLRLSCTASGFRLDYYAIGWFRQAPGKEREAISCIDITGMHTNYGDSVMGRFTISRDDAKRTVYLQMNSLEAEDTGIYYCAPAQYAACSALGVKVSFTSWGQGTQVTVSP
For the molecule B1, the OD value of the antigen well (Pro) in experiment [1] amounted to 0.89 OD.

B2: B3 alpaca antibody (anti-CD38 single-domain antibody) (VHH)
VHH: QVQLVESGGGLVQAGGSLRLACTASGNIFASQVMNWYRQAPGSPRELVATITPGGRTTYADSAKGRFTVATDNAKATAYLQLTSLTPEDTGVYYCHVRLFPATDYWGQGTQVTVSS
Take B2: the OD value of the antigen well (Pro) in experiment [2] was 0.15 OD.

B3: B2 alpaca antibody (anti-CD38 single-domain antibody) (VHH)
VHH: QVQLVESGGGLVQPGGSLTLSCRASGFTLDYYAIGWFRQAPGKEREAIACIDITGFHTNYGDSVSGRFTISRDNAGTTVYLQMNSLEAEDTGIYYCAPARYAACSALDVKLSFTSWGQGTQVTVSS
B3 returned an OD value of the antigen well (Pro) in experiment [3] of 1.07 OD.

B4: B8 alpaca antibody (anti-CD38 single-domain antibody) (VHH)
VHH: QVQLVESGGGLVQPGGSLRLSCTASGFRLDYYAIGWFRQAPGKEREAIACIDITGFHTNYGDSVSGRFTISRDNAGTTVYLQMNSLEAEDTGIYYCAPARYAACSALDVKLSFTSWGQGTQVTVSS
Consider B4, for which the OD value of the antigen well (Pro) in experiment [4] came out at 1.77 OD.

B5: B1 alpaca antibody (anti-CD38 single-domain antibody) (VHH)
VHH: QVQLVESGGGEVQPGGSLRLSCTASGFRLDYYAIGWFRRAPGKEREGIACIDITGIHTNYGDSVMGRFTISRDDRAVYLQMNNLEAGDTAIYYCAPARFSACSALDVKLSFTSWGQGTQVTVSS
On to B5, for which the OD value of the antigen well (Pro) in experiment [3] stood at 0.65 OD.
